Results published in PMC6349404, “Integrin alpha11 is an Osteolectin receptor and is required for the maintenance of adult skeletal bone mass” (eLife, 2019).

What was measured:
Assay in all cases: ELISA; microtiter well binding assay; plates coated with 10 nM recombinant human Osteolectin, Pro-Collagen 1α or BSA overnight at 4°C, blocked with 10 mg/ml BSA; 6xHis tagged integrins in TBS (50 mM Tris-Cl pH 7.5, 150 mM NaCl) with 1 mM MnCl2; bound integrin detected with anti-His tag antibody and HRP secondary, OD 450 nm
Conditions in all cases: both partners purified
[1] = molecular target: T1, recombinant human integrin α11β1 (human, UniProt Q9UKX5 23-1141; P05556 21-728)
T1 construct: integrin α11, human, chain of the recombinant heterodimer; integrin β1, human, chain of the recombinant heterodimer; also called α11β1 integrin; source: bought: R and D Systems

[2] = molecular target: T2, recombinant human integrin α4β1 (human, UniProt P13612 35-977; P05556 21-728)
T2 construct: integrin α4, human, chain of the recombinant heterodimer; integrin β1, human, chain of the recombinant heterodimer; source: bought: R and D Systems

[3] = molecular target: T3, recombinant human integrin α9β1 (human, UniProt Q13797 30-981; P05556 21-728)
T3 construct: integrin α9, human, chain of the recombinant heterodimer; integrin β1, human, chain of the recombinant heterodimer; source: bought: R and D Systems

[4] = molecular target: recombinant human integrin αMβ2 (human, UniProt P11215 17-1104; P05107 23-700)
[5] = molecular target: T4, recombinant human integrin α10β1 (human, UniProt O75578 23-1122; P05556 21-728)
T4 construct: integrin α10, human, chain of the recombinant heterodimer; integrin β1, human, chain of the recombinant heterodimer; source: bought: R and D Systems
T4 sequence (O75578 23-1122, chain 1 of 2): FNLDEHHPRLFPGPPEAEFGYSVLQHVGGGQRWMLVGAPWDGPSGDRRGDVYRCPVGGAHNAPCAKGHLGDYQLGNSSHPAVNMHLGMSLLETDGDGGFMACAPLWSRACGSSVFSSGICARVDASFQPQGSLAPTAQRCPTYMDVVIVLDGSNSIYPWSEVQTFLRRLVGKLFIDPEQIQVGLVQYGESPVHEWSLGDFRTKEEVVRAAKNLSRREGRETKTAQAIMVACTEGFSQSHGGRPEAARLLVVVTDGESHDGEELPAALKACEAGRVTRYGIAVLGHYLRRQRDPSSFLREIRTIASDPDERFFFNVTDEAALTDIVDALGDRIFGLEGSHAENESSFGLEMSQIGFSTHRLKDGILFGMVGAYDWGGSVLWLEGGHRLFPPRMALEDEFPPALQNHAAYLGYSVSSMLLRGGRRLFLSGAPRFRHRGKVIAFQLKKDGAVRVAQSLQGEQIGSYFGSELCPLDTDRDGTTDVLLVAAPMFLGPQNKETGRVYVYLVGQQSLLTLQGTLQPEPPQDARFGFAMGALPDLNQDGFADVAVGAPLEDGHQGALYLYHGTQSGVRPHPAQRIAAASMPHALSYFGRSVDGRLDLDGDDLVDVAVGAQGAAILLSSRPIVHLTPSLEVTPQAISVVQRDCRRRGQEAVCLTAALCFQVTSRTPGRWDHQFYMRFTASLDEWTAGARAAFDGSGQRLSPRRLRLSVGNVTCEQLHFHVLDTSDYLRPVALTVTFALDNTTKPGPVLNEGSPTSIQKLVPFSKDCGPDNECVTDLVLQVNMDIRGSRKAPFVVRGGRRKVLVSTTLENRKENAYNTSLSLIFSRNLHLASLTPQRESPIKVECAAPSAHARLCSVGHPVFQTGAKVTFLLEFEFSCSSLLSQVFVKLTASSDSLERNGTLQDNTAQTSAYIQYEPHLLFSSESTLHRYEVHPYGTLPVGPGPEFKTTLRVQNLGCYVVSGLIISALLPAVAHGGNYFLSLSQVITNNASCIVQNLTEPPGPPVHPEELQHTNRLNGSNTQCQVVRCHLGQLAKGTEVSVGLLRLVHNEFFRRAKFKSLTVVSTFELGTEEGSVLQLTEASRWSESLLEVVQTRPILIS
T4 sequence (P05556 21-728, chain 2 of 2): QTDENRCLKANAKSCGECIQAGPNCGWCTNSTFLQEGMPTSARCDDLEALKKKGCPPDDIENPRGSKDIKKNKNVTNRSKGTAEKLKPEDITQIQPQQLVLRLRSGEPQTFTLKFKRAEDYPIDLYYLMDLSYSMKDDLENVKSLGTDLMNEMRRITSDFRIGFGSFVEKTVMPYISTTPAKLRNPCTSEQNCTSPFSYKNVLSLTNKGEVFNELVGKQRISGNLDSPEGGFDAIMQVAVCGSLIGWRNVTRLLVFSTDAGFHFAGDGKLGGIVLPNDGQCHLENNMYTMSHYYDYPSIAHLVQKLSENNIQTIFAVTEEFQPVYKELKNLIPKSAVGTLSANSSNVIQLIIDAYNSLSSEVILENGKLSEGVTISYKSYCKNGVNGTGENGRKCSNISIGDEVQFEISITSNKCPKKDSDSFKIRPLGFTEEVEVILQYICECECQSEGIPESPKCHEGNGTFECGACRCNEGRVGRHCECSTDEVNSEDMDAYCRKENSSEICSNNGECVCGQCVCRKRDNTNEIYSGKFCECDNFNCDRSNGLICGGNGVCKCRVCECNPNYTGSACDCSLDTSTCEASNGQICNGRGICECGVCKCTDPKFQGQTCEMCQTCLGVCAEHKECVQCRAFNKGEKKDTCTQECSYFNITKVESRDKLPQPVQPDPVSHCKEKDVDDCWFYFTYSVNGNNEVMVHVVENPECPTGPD

T2 sequence (P13612 35-977, chain 1 of 2): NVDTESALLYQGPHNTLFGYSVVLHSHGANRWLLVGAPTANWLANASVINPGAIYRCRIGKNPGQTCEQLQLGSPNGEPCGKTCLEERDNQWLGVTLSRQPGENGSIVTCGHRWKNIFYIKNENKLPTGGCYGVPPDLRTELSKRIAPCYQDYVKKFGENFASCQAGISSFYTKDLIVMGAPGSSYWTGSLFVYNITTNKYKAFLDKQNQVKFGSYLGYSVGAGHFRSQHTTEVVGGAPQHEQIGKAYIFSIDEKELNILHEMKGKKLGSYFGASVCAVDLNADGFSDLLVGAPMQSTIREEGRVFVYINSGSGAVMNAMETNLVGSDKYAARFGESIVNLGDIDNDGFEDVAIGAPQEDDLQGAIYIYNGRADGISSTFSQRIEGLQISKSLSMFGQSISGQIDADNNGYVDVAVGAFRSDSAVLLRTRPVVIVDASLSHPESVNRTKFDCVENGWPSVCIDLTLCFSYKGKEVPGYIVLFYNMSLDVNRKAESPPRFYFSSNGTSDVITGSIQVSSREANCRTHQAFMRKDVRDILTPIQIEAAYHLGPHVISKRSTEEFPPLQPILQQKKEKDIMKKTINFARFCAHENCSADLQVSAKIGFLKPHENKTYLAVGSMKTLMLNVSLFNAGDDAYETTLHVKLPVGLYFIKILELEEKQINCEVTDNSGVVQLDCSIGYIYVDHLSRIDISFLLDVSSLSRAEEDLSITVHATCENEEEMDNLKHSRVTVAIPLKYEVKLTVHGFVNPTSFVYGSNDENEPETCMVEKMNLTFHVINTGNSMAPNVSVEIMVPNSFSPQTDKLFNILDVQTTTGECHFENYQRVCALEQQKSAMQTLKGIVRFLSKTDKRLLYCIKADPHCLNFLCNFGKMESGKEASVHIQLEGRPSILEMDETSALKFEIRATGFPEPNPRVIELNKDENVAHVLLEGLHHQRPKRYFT
T2 sequence (P05556 21-728, chain 2 of 2): as the sequence (P05556 21-728, chain 2 of 2) above
T1 sequence (Q9UKX5 23-1141, chain 1 of 2): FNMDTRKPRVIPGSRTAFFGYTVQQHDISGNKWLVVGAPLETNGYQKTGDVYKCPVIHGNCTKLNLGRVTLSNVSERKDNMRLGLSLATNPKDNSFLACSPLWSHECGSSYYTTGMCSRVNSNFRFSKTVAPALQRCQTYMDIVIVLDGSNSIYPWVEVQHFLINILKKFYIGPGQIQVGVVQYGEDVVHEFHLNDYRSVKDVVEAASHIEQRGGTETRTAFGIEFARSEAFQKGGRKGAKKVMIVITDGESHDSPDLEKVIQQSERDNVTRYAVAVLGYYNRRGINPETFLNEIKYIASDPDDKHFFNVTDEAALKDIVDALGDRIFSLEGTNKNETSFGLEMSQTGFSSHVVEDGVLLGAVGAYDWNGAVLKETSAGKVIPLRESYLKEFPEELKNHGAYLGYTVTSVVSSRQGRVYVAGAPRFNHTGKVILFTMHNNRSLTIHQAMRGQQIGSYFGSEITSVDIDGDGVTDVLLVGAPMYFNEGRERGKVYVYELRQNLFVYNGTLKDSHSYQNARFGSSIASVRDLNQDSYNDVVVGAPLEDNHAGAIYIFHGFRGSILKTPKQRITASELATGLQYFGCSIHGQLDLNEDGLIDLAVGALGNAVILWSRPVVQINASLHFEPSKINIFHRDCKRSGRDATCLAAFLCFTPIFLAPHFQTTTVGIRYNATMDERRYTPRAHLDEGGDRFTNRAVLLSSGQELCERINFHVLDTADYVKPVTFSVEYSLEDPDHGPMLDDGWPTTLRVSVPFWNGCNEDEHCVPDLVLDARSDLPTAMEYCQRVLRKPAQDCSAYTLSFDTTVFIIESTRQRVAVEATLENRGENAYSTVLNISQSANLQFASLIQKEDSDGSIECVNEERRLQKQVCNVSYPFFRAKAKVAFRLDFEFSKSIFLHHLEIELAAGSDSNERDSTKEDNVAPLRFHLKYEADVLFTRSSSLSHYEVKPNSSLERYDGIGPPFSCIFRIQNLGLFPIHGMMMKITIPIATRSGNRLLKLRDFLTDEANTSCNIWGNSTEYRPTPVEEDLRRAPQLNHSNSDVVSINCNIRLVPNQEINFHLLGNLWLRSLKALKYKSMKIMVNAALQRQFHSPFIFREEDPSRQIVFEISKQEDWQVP
T1 sequence (P05556 21-728, chain 2 of 2): as the sequence (P05556 21-728, chain 2 of 2) above
T3 sequence (Q13797 30-981, chain 1 of 2): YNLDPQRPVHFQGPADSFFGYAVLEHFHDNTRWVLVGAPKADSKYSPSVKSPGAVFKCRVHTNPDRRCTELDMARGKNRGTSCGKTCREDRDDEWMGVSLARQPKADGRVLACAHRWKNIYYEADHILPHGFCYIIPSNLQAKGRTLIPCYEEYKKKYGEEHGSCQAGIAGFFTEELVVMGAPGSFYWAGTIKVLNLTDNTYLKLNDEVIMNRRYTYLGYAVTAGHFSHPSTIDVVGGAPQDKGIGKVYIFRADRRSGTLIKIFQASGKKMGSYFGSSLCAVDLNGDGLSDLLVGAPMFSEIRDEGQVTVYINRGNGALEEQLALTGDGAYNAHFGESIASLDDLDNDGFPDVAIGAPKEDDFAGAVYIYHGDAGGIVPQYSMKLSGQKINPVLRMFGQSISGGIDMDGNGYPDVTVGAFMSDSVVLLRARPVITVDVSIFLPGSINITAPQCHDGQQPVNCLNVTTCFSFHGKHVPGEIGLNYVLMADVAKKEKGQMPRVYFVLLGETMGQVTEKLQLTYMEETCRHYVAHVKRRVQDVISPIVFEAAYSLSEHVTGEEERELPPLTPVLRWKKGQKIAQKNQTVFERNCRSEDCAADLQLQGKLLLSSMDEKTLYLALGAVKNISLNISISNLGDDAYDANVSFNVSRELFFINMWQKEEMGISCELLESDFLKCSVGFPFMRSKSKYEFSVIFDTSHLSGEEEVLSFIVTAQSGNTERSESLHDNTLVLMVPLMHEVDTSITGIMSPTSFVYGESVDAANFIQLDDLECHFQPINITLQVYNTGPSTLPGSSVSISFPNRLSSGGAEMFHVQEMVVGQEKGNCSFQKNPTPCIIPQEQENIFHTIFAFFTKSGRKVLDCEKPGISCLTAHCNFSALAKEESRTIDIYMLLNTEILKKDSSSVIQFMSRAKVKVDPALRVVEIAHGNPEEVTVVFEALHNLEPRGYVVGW
T3 sequence (P05556 21-728, chain 2 of 2): as the sequence (P05556 21-728, chain 2 of 2) above

Kd [1]: 0.3 nM
Kd [2]: > 100 nM
Kd [3]: > 100 nM
Kd [4]: > 100 nM
Kd [5]: 0.3 nM
B1: recombinant human Osteolectin (ligand, UniProt Q9Y240 22-323, looked up)
chain: ARGAEREWEGGWGGAQEEEREREALMLKHLQEALGLPAGRGDENPAGTVEGKEDWEMEEDQGEEEEEEATPTPSSGPSPSPTPEDIVTYILGRLAGLDAGLHQLHVRLHALDTRVVELTQGLRQLRNAAGDTRDAVQALQEAQGRAEREHGRLEGCLKGLRLGHKCFLLSRDFEAQAAAQARCTARGGSLAQPADRQQMEALTRYLRAALAPYNWPVWLGVHDRRAEGLYLFENGQRVSFFAWHRSPRPELGAQPSASPHPLSPDQPNGGTLENCVAQASDDGSWWDHDCQRRLYYVCEFPF
notes: Osteolectin/Clec11a, human; cDNA cloned into pcDNA3 with a C-terminal 1XFlag-tag; secreted into the culture medium; also called rhOln; Clec11a
